Laboratory results from the supplement of paper PMC10567573.
± gives the standard deviation.

Assay: protein stability index of a GFP-peptide fusion (GPS, HEK-293T) (PSI 1-6); higher = more stable
Conditions: c terminus: a fixed tail appended
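Also: 24-mer peptide tiles fused after GFP, lentivirally expressed, FACS-sorted into six equal bins by GFP/DsRed ratio, decoded by Illumina sequencing, PSI is the read-weighted mean bin number.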

Row | Sequence | protein stability index (treatment: DMSO) | protein stability index (treatment: MLN4924 1 uM, 8 h)
1 | GIFLFCVCVIAIGVVQALIVGYAF [TMEM175] | 2.6 ± 0.56 | 2.33 ± 0.56
2 | LDWISYQVEKNKYDASAIDFSRCD [ELF3] | 2.93 ± 0.23 | 3.01 ± 0.1
3 | SGCLPPEPLFEAGDATLASDLQDW [FOXJ1] | 4.82 ± 0.36 | 4.74 ± 0.18
4 | KGPLVPFPNQKSEAAEPPKTPPSS [KMT5A] | 5.25 ± 0.25 | 5.39 ± 0.21
5 | AQAAVQGPVGTDFKPLNSTPATTT [ZNF207] | 4.81 ± 0.24 | 4.89 ± 0.26
6 | SRAPCKVQGLEGIKMAMVACGDAF [NEK8] | 2.27 ± 0.38 | 2.25 ± 0.27
7 | TATTAPPALDIFGDLFESTPEVAA [SNAP91] | 4.62 ± 0.29 | 4.71 ± 0.2
8 | TGELETLKERCAQDACQAQAREKE [CCDC89] | 5.46 ± 0.31 | 5.39 ± 0.2
9 | LKLQTKDGHRPEWTFYPRFSSNIH [SPATS1] | 2.4 ± 0.3 | 2.48 ± 0.32
10 | AALNMSLGMVTPVNDLRGSDSIAY [ADD1] | 2.48 ± 0.37 | 2.62 ± 0.22
11 | CPSPEALSPEPPVYSLQDFDTLAT [PRKX] | 4.61 ± 0.26 | 4.84 ± 0.053
12 | GAHWMRQLVSFQKLKLTNNHLDPF [TBX5] | 2.18 ± 0.21 | 2.19 ± 0.45
13 | SWREAKVSWFGSPTTSFLSISKLS [PWWP2B] | 2.15 ± 0.46 | 2.44 ± 0.43
14 | MSSEVSARRDAKKLVRSPSGLRMV [ZFYVE21] | 3.67 ± 0.091 | 3.58 ± 0.28
15 | LLKSHTNVLSVNLPDNFTLKEDGM [TPH1] | 3.15 ± 0.24 | 3.22 ± 0.34
16 | PHVIVSTTGPNPFTTLTDRELEEY [ADD1] | 4.83 ± 0.17 | 4.91 ± 0.091
17 | VTGLNPKTKYILLMDIVPADDHRY [TBX5] | 2.63 ± 0.44 | 1.95 ± 0.53
18 | YNYMMGIEFNPRIGKWFDFKLFFN [DHCR7] | 2.52 ± 0.53 | 2.23 ± 0.33

Row | Sequence | protein stability index (treatment: DMSO) | protein stability index (treatment: MLN4924 1 uM, 8 h)
19 | YRKQNAYIATQGSLPETFGDFWRM [PTPRD] | 2.54 ± 0.39 | 2.12 ± 0.08
20 | KHLTDTSHGVRNKCLQLLGNLGSL [INTS4] | 2.45 ± 0.4 | 2.46 ± 0.42
21 | RVIACQKTAHDSNVLHVARLPNRQ [WDR41] | 3.52 ± 0.18 | 3.65 ± 0.27
22 | TSLTALSLASASPPLSGRSTPKLT [PPFIA4] | 4.17 ± 0.08 | 4.13 ± 0.12
23 | LQTLRSFSHTLVSLSLFGCTNIFY [ZER1] | 2.26 ± 0.35 | 3.67 ± 1.3
24 | QHGFFRRTADEATNTGPAGSSAST [DYRK1B] | 5.02 ± 0.19 | 4.93 ± 0.16
25 | SLLRRIKGKLFTWNILKTIALGQM [SLC35F2] | 2.31 ± 0.63 | 2.38 ± 0.23
26 | FGMAKIDNLLQEMLLGGSPSDAPH [HNF4A] | 2.8 ± 0.25 | 2.76 ± 0.28
27 | AESRELPVRCAGDWLPRGLGWGGR [ALG2] | 2.53 ± 0.053 | 2.54 ± 0.29
28 | LGHPALSQEEGKSALEDQGSNPSS [PPFIA4] | 5.59 ± 0.21 | 5.25 ± 0.91
29 | VTSQERHCLQQRRKSVPGPGNRTC [ADAMTSL2] | 4.92 ± 0.42 | 4.824 ± 0.006
30 | RGSETTYESSADIAGDEGTQIPAD [TAF7L] | 5.58 ± 0.12 | 5.62 ± 0.12
31 | EVRLVPVSFEDPEFKSSFSQSFSL [ATE1] | 2.56 ± 0.41 | 2.74 ± 0.39
32 | LYSLAPTMGAVVLSSTLLSFSTAI [MFSD9] | 3.19 ± 0.47 | 2.96 ± 0.42
33 | TPRGPDPALLEATGGAAGAGGAGR [KCTD13] | 5.13 ± 0.23 | 5.18 ± 0.21
34 | GPPHARISQHGDPLLSNTFTETNN [EMID1] | 4.31 ± 0.13 | 4.748 ± 0.028
35 | STKPSGSPLEEKHDQCKCENLIMF [MATN2] | 3.3 ± 0.15 | 3.41 ± 0.099
36 | AGLDWQSLGQMKELGVIFYNCSCL [PLD5] | 3.12 ± 0.15 | 3.26 ± 0.43
